The target in test [1] is T1, hPRLR on stably transfected BaF/3 cells (human, UniProt P16471 25-622).
T1 sequence (looked up): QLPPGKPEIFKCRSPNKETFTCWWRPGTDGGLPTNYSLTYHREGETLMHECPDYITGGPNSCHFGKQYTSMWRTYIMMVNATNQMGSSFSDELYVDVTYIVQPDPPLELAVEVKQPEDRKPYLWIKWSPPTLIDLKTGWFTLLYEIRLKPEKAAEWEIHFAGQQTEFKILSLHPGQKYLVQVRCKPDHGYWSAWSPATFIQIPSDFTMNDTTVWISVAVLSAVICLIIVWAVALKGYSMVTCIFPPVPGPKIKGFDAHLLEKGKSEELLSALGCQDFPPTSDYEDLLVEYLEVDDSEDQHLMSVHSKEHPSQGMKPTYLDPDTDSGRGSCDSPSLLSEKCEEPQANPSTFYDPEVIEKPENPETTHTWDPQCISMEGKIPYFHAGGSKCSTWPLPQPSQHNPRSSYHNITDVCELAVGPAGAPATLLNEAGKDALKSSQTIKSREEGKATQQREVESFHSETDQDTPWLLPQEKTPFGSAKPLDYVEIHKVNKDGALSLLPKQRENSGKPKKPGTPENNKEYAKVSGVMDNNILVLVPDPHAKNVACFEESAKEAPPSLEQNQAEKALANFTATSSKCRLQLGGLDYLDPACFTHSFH
The test is described as follows: cell-based or functional assay.

In test [2] the target is T2, soluble form of the PRL receptor (UniProt P16471 25-234, limits assumed).
T2 construct: extracellular domain; It gives no residues, tag or species; also called prolactin receptor; immobilized receptor
T2 sequence (looked up): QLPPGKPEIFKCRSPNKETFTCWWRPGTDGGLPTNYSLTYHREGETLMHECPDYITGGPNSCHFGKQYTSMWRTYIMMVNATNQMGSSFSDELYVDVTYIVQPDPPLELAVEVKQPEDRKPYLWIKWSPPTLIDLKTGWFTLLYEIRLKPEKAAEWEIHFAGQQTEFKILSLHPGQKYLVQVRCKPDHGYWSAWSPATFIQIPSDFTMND
As to the kind of experiment: SPR (Biacore 3000), soluble PRL receptor amine-coupled to CM5 chip, prolactin molecule injected at 500 nM. How it is done:
The soluble form of the PRL receptor (25 μg/ml in 10 mM sodium acetate, pH 3.0) was injected into a Biacore 3000 instrument at a flow rate of 5 μl/min and coupled to a CM5 sensor chip by amine coupling chemistry. […] Data evaluation was performed in BiaEvaluation 4.1. Regeneration was accomplished with 4.5 M MgCl₂ between runs.
Using the assay as described in Example 8, the binding of N-terminally pegylated versions of the prolactin antagonist PRL(12-199) Q12S G129R to the prolactin receptor was determined.

Test [3] deals with T1, hPRLR on stably transfected BaF/3 cells. As to the kind of experiment: cell-based or functional assay. This is another data set of the same source.

Like-named read-outs stand apart in the source and are kept apart here.

B1: PRL(12-199) Q12S G129R (ligand)
chain: SVTLRDLFDRAVVLSHYIHNLSSEMFSEFDKRYTHGRGFITKAINSCHTSSLATPEDKEQAQQMNQKDFLSLIVSILRSWNEPLYHLVTEVRGMQEAPEAILSKAVEIEEQTKRLLERMELIVSQVHPETKENEIYPVWSGLPSLQMADEESRLSAYYNLLHCLRRDSHKIDNYLKLLKCRIIHNNNC
For the molecule B1, the “EC50 of PRL in the presence of 1 µM PRL(12-199) Q12S G129R, proliferation of BaF/3 cells stably transfected with hPRLR” value in test [1] stood at 40 nM.

B2: Ser PRL S33A Q73L G129R K190R (ligand)
chain: SLPICPGGAARCQVTLRDLFDRAVVLSHYIHNLASEMFSEFDKRYTHGRGFITKAINSCHTSSLATPEDKEQALQMNQKDFLSLIVSILRSWNEPLYHLVTEVRGMQEAPEAILSKAVEIEEQTKRLLERMELIVSQVHPETKENEIYPVWSGLPSLQMADEESRLSAYYNLLHCLRRDSHKIDNYLKLLRCRIIHNNNC
As for B2, the “EC50 of PRL in the presence of 1 µM Ser PRL S33A Q73L G129R K190R, proliferation of BaF/3 cells stably transfected with hPRLR” value in test [1] was 531 nM.

B3: N^alpha1-(3-(20 kDa-mPEGyl)propyl) Ser PRL S33A Q73L G129R K190R (ligand)
chain: SLPICPGGAARCQVTLRDLFDRAVVLSHYIHNLASEMFSEFDKRYTHGRGFITKAINSCHTSSLATPEDKEQALQMNQKDFLSLIVSILRSWNEPLYHLVTEVRGMQEAPEAILSKAVEIEEQTKRLLERMELIVSQVHPETKENEIYPVWSGLPSLQMADEESRLSAYYNLLHCLRRDSHKIDNYLKLLRCRIIHNNNC
modifications: N-terminal alpha-amino group (N^alpha1, of the added serine) alkylated with 3-(20 kDa mPEGyl)propyl by reductive amination
Turning to B3, the “EC50 of PRL in the presence of 1 µM Ser PRL S33A Q73L G129R K190R PEG20k, proliferation of BaF/3 cells stably transfected with hPRLR” value in test [1] was 19 nM.

B4: N^alpha,13((4-(2-Methyl-4-(10 kDa mPEGyloxy)butanoylamino)butoxy)imino)acetyl G129R-PRL(13-199) (E2) (ligand)
chain: VTLRDLFDRAVVLSHYIHNLSSEMFSEFDKRYTHGRGFITKAINSCHTSSLATPEDKEQAQQMNQKDFLSLIVSILRSWNEPLYHLVTEVRGMQEAPEAILSKAVEIEEQTKRLLERMELIVSQVHPETKENEIYPVWSGLPSLQMADEESRLSAYYNLLHCLRRDSHKIDNYLKLLKCRIIHNNNC
modifications: alpha-amino group of residue 13 carries ((4-(2-methyl-4-(10 kDa mPEGyloxy)butanoylamino)butoxy)imino)acetyl (oxime formed on the periodate-oxidised N-terminal serine of N^alpha,13-seryl G129R-PRL(13-199))
notes: also called N-terminally pegylated PRL(12-199) Q12S G129R (10 kDa PEG)
Take B4: in test [2], the Kd amounted to 55 nM.

B5: N^alpha,13((4-(4-(20 kDa mPEGyloxy)butanoylamino)butoxy)imino)acetyl G129R-PRL(13-199) (E3) (ligand)
chain: VTLRDLFDRAVVLSHYIHNLSSEMFSEFDKRYTHGRGFITKAINSCHTSSLATPEDKEQAQQMNQKDFLSLIVSILRSWNEPLYHLVTEVRGMQEAPEAILSKAVEIEEQTKRLLERMELIVSQVHPETKENEIYPVWSGLPSLQMADEESRLSAYYNLLHCLRRDSHKIDNYLKLLKCRIIHNNNC
modifications: alpha-amino group of residue 13 carries ((4-(4-(20 kDa mPEGyloxy)butanoylamino)butoxy)imino)acetyl (oxime formed on the periodate-oxidised N-terminal serine of N^alpha,13-seryl G129R-PRL(13-199))
notes: also called N-terminally pegylated PRL(12-199) Q12S G129R (20 kDa PEG)
For the molecule B5, binding in test [2] was put at a Kd of 70 nM.

B6: N^alpha,13((4-(3-(5 kDa mPEGyloxy)propionylamino)butoxy)imino)acetyl G129R-PRL(13-199) (E4) (ligand)
chain: VTLRDLFDRAVVLSHYIHNLSSEMFSEFDKRYTHGRGFITKAINSCHTSSLATPEDKEQAQQMNQKDFLSLIVSILRSWNEPLYHLVTEVRGMQEAPEAILSKAVEIEEQTKRLLERMELIVSQVHPETKENEIYPVWSGLPSLQMADEESRLSAYYNLLHCLRRDSHKIDNYLKLLKCRIIHNNNC
modifications: alpha-amino group of residue 13 carries ((4-(3-(5 kDa mPEGyloxy)propionylamino)butoxy)imino)acetyl (oxime formed on the periodate-oxidised N-terminal serine of N^alpha,13-seryl G129R-PRL(13-199))
notes: also called N-terminally pegylated PRL(12-199) Q12S G129R (5 kDa PEG)
B6 registered a Kd in test [2] of 42 nM.

B7: PRL wildtype (ligand)
chain: LPICPGGAARCQVTLRDLFDRAVVLSHYIHNLSSEMFSEFDKRYTHGRGFITKAINSCHTSSLATPEDKEQAQQMNQKDFLSLIVSILRSWNEPLYHLVTEVRGMQEAPEAILSKAVEIEEQTKRLLEGMELIVSQVHPETKENEIYPVWSGLPSLQMADEESRLSAYYNLLHCLRRDSHKIDNYLKLLKCRIIHNNNC
notes: also called wtPRL; human prolactin
In the case of B7, the “EC50, proliferation (AlamarBlue) of BaF/3 cells stably transfected with hPRLR” value in test [3] and in test [1] was 0.15 nM each time. Further, binding in test [2] was characterised by a dissociation constant (Kd) of 32 nM.

B8: PRL S61A G129R (ligand)
chain: LPICPGGAARCQVTLRDLFDRAVVLSHYIHNLSSEMFSEFDKRYTHGRGFITKAINSCHTASLATPEDKEQAQQMNQKDFLSLIVSILRSWNEPLYHLVTEVRGMQEAPEAILSKAVEIEEQTKRLLERMELIVSQVHPETKENEIYPVWSGLPSLQMADEESRLSAYYNLLHCLRRDSHKIDNYLKLLKCRIIHNNNC
On to B8, for which the “EC50 of PRL in the presence of 1 µM PRL S61A G129R, proliferation of BaF/3 cells stably transfected with hPRLR” value in test [3] came out at 116 nM.

B9: N^alpha1-(3-(20 kDa-mPEGyl)propyl)PRL S61 G129R ("PRL S61A G129R PEG20k") (ligand)
chain: LPICPGGAARCQVTLRDLFDRAVVLSHYIHNLSSEMFSEFDKRYTHGRGFITKAINSCHTASLATPEDKEQAQQMNQKDFLSLIVSILRSWNEPLYHLVTEVRGMQEAPEAILSKAVEIEEQTKRLLERMELIVSQVHPETKENEIYPVWSGLPSLQMADEESRLSAYYNLLHCLRRDSHKIDNYLKLLKCRIIHNNNC
modifications: N-terminal alpha-amino group (N^alpha1) alkylated with 3-(20 kDa mPEGyl)propyl by reductive amination
In the case of B9, the “EC50 of PRL in the presence of 1 µM PRL S61A G129R PEG20k, proliferation of BaF/3 cells stably transfected with hPRLR” value in test [3] came out at 4.6 nM. Besides, in test [2], binding was put at a Kd of 71 nM.
